# Experimental data: PMC3265891 (The Journal of Biological Chemistry, 2011)
# Columns and labels:
# [1] = target: the molecule itself; assay: SEC
# [2] = target: the molecule itself; assay: crystal structure
protein,measurement,setting,value
"human UDP-glucose 6-dehydrogenase E161Q mutant (C-terminally truncated) (enzyme, UniProt O60701 1-467, looked up) MFEIKKICCIGAGYVGGPTCSVIAHMCPEIRVTVVDVNESRINAWNSPTLPIYEPGLKEVVESCRGKNLFFSTNIDDAIKEADLVFISVNTPTKTYGMGKGRAADLKYIEACARRIVQNSNGYKIVTEKSTVPVRAAESIRRIFDANTKPNLNLQVLSNPQFLAEGTAIKDLKNPDRVLIGGDETPEGQRAVQALCAVYEHWVPREKILTTNTWSSELSKLAANAFLAQRISSINSISALCEATGADVEEVATAIGMDQRIGNKFLKASVGFGGSCFQKDVLNLVYLCEALNLPEVARYWQQVIDMNDYQRRRFASRIIDSLFNTVTDKKIAILGFAFKKDTGDTRESSSIYISKYLMDEGAHLHIYDPKVPREQIVVDLSHPGVSEDDQVSRLVTISKDPYEACDGAHAVVICTEWDMFKELDYERIHKKMLKPAFIFDGRRVLDGLHNELQTIGFQIETIGKKVS",stoichiometry N,[1],6
"human UDP-glucose 6-dehydrogenase E161Q mutant (thiohemiacetal intermediate) (enzyme, UniProt O60701 1-467, looked up, Cys276 covalently modified: Sγ bonded to C6 of the UDP-Glc-derived substrate (thiohemiacetal)) MFEIKKICCIGAGYVGGPTCSVIAHMCPEIRVTVVDVNESRINAWNSPTLPIYEPGLKEVVESCRGKNLFFSTNIDDAIKEADLVFISVNTPTKTYGMGKGRAADLKYIEACARRIVQNSNGYKIVTEKSTVPVRAAESIRRIFDANTKPNLNLQVLSNPQFLAEGTAIKDLKNPDRVLIGGDETPEGQRAVQALCAVYEHWVPREKILTTNTWSSELSKLAANAFLAQRISSINSISALCEATGADVEEVATAIGMDQRIGNKFLKASVGFGGSCFQKDVLNLVYLCEALNLPEVARYWQQVIDMNDYQRRRFASRIIDSLFNTVTDKKIAILGFAFKKDTGDTRESSSIYISKYLMDEGAHLHIYDPKVPREQIVVDLSHPGVSEDDQVSRLVTISKDPYEACDGAHAVVICTEWDMFKELDYERIHKKMLKPAFIFDGRRVLDGLHNELQTIGFQIETIGKKVS",binding result,[2],binds
"human UDP-glucose 6-dehydrogenase D280A mutant (C-terminally truncated) (enzyme, UniProt O60701 1-467, looked up) MFEIKKICCIGAGYVGGPTCSVIAHMCPEIRVTVVDVNESRINAWNSPTLPIYEPGLKEVVESCRGKNLFFSTNIDDAIKEADLVFISVNTPTKTYGMGKGRAADLKYIEACARRIVQNSNGYKIVTEKSTVPVRAAESIRRIFDANTKPNLNLQVLSNPEFLAEGTAIKDLKNPDRVLIGGDETPEGQRAVQALCAVYEHWVPREKILTTNTWSSELSKLAANAFLAQRISSINSISALCEATGADVEEVATAIGMDQRIGNKFLKASVGFGGSCFQKAVLNLVYLCEALNLPEVARYWQQVIDMNDYQRRRFASRIIDSLFNTVTDKKIAILGFAFKKDTGDTRESSSIYISKYLMDEGAHLHIYDPKVPREQIVVDLSHPGVSEDDQVSRLVTISKDPYEACDGAHAVVICTEWDMFKELDYERIHKKMLKPAFIFDGRRVLDGLHNELQTIGFQIETIGKKVS",stoichiometry N,[1],6
"human UDP-glucose 6-dehydrogenase T131S mutant (C-terminally truncated) (enzyme, UniProt O60701 1-467, looked up) MFEIKKICCIGAGYVGGPTCSVIAHMCPEIRVTVVDVNESRINAWNSPTLPIYEPGLKEVVESCRGKNLFFSTNIDDAIKEADLVFISVNTPTKTYGMGKGRAADLKYIEACARRIVQNSNGYKIVTEKSSVPVRAAESIRRIFDANTKPNLNLQVLSNPEFLAEGTAIKDLKNPDRVLIGGDETPEGQRAVQALCAVYEHWVPREKILTTNTWSSELSKLAANAFLAQRISSINSISALCEATGADVEEVATAIGMDQRIGNKFLKASVGFGGSCFQKDVLNLVYLCEALNLPEVARYWQQVIDMNDYQRRRFASRIIDSLFNTVTDKKIAILGFAFKKDTGDTRESSSIYISKYLMDEGAHLHIYDPKVPREQIVVDLSHPGVSEDDQVSRLVTISKDPYEACDGAHAVVICTEWDMFKELDYERIHKKMLKPAFIFDGRRVLDGLHNELQTIGFQIETIGKKVS",stoichiometry N,[1],6
"human UDP-glucose 6-dehydrogenase K220A mutant (C-terminally truncated) (enzyme, UniProt O60701 1-467, looked up) MFEIKKICCIGAGYVGGPTCSVIAHMCPEIRVTVVDVNESRINAWNSPTLPIYEPGLKEVVESCRGKNLFFSTNIDDAIKEADLVFISVNTPTKTYGMGKGRAADLKYIEACARRIVQNSNGYKIVTEKSTVPVRAAESIRRIFDANTKPNLNLQVLSNPEFLAEGTAIKDLKNPDRVLIGGDETPEGQRAVQALCAVYEHWVPREKILTTNTWSSELSALAANAFLAQRISSINSISALCEATGADVEEVATAIGMDQRIGNKFLKASVGFGGSCFQKDVLNLVYLCEALNLPEVARYWQQVIDMNDYQRRRFASRIIDSLFNTVTDKKIAILGFAFKKDTGDTRESSSIYISKYLMDEGAHLHIYDPKVPREQIVVDLSHPGVSEDDQVSRLVTISKDPYEACDGAHAVVICTEWDMFKELDYERIHKKMLKPAFIFDGRRVLDGLHNELQTIGFQIETIGKKVS",stoichiometry N,[1],6
"human UDP-glucose 6-dehydrogenase N224A mutant (C-terminally truncated) (enzyme, UniProt O60701 1-467, looked up) MFEIKKICCIGAGYVGGPTCSVIAHMCPEIRVTVVDVNESRINAWNSPTLPIYEPGLKEVVESCRGKNLFFSTNIDDAIKEADLVFISVNTPTKTYGMGKGRAADLKYIEACARRIVQNSNGYKIVTEKSTVPVRAAESIRRIFDANTKPNLNLQVLSNPEFLAEGTAIKDLKNPDRVLIGGDETPEGQRAVQALCAVYEHWVPREKILTTNTWSSELSKLAAAAFLAQRISSINSISALCEATGADVEEVATAIGMDQRIGNKFLKASVGFGGSCFQKDVLNLVYLCEALNLPEVARYWQQVIDMNDYQRRRFASRIIDSLFNTVTDKKIAILGFAFKKDTGDTRESSSIYISKYLMDEGAHLHIYDPKVPREQIVVDLSHPGVSEDDQVSRLVTISKDPYEACDGAHAVVICTEWDMFKELDYERIHKKMLKPAFIFDGRRVLDGLHNELQTIGFQIETIGKKVS",stoichiometry N,[1],6
